The target of experiment [1] is T1, human calcitonin receptor (human, UniProt P30988 25-474).
T1 construct: whole, on cells; Assayed as cell membranes of BHK tk'ts 13 cells stably transfected with the human calcitonin receptor (Assay VII); also called hCTR; hCT
T1 sequence (looked up): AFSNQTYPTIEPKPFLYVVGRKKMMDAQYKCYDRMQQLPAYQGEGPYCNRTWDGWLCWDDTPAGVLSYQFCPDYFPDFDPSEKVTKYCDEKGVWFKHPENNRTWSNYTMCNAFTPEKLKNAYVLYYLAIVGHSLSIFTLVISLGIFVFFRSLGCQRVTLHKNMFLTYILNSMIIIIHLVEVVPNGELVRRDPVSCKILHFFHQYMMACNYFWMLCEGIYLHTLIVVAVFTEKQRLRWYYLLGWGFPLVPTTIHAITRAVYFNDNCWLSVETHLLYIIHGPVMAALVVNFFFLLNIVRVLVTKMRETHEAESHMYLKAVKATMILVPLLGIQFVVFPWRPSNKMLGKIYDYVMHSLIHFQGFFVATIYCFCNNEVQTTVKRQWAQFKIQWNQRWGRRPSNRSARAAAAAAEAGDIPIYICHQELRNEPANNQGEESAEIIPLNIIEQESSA
Put plainly: SPA competition vs 125I-calcitonin, membranes of BHK cells with human calcitonin receptor (Assay VII). As to the method: Membranes were prepared in the following way; the cells were rinsed with PBS and incubated with Versene for approximately 5 min before harvesting. The cells were flushed with PBS and the cell-suspension was centrifuged for 5 min at 1000 rpm. Cells were homogenized (Ultrathurrax) in a buffer containing 20 mM Na-HEPES and 10 mM EDTA (pH 7.4) and centrifuged at 20.000 rpm for 15 min. The resulting pellet was resuspended, homogenized and centrifuged (20.000 rpm, 15 min) in a buffer containing 20 mM Na-HEPES and 0.1 mM EDTA (pH 7.4, buffer 2). The resulting pellet was resuspended in buffer 2 and protein concentration was measured (BCA protein Assay, Pierce). The homogenate was kept cold during the whole procedure. The membranes were kept at −80° C. until use. Assay was performed in a 384 well Optiplate (PerkinElmer) in a total volume of 40 ul. Membranes were mixed with SPA beads. Final concentration of membranes 35 ng/μL final and Final concentration of SPA beads was 0.05 mg/well. Test-compounds were dissolved in DMSO and further diluted in assay buffer (50 mM Hepes, pH 7.4, 1 mM CaCl2, 5 mM MgCl₂, 0.1% OA and 0.02% Tween20). […] The final mixture was incubated for 120 min with shaking at 400 rpm at 25° C. prior to centrifugation (1500 rpm, 10 min). Samples were analyzed on TopCounter™ (Packard). The […] was calculated using (one site binding competition analysis) GraphPad Prism5 as a measure of receptor affinity.

Experiment [2] has as its target T1, human calcitonin receptor. In words: IC50 at hCTR divided by IC50 at hAmylin-R (SPA competition assays V and VII). As to the method:
The resulting pellet was resuspended, homogenized and centrifuged (20.000 rpm, 15 min) in a buffer containing 20 mM Na-HEPES and 0.1 mM EDTA (pH 7.4, buffer 2). The resulting pellet was resuspended in buffer 2 and protein concentration was measured (BCA protein Assay, Pierce). The homogenate was kept cold during the whole procedure. The membranes were kept at −80° C. until use. The assay was performed in a 384 well Optiplate (PerkinElmer) in a total volume of 40 ul. Membranes were mixed with SPA beads. Final concentration of membranes 35 ng/μL final and SPA beads was 0.05 mg/well. Test-compounds were dissolved in DMSO and further diluted in assay buffer (50 mM Hepes, pH 7.4, 1 mM CaCl2, 5 mM MgCl₂, 0.1% OA and 0.02% Tween20). […] The final mixture was incubated with shaking at 400 rpm for 120 min at 25° C. prior to centrifugation (1500 rpm, 10 min). Samples were analyzed on TopCounter™ (Packard). The IC₅₀ was calculated using (one site binding competition analysis) GraphPad Prism5 as a measure of receptor affinity.
Membranes were prepared in the following way; the cells were rinsed with PBS and incubated with Versene for approximately 5 min before harvesting. The cells were flushed with PBS and the cell-suspension was centrifuged for 5 min at 1000 rpm. Cells were homogenized (Ultrathurrax) in a buffer containing 20 mM Na-HEPES and 10 mM EDTA (pH 7.4) and centrifuged at 20.000 rpm for 15 min. The resulting pellet was resuspended, homogenized and centrifuged (20.000 rpm, 15 min) in a buffer containing 20 mM Na-HEPES and 0.1 mM EDTA (pH 7.4, buffer 2). The resulting pellet was resuspended in buffer 2 and protein concentration was measured (BCA protein Assay, Pierce). The homogenate was kept cold during the whole procedure. The membranes were kept at −80° C. until use. Assay was performed in a 384 well Optiplate (PerkinElmer) in a total volume of 40 ul. Membranes were mixed with SPA beads.

Numbered stars: 1 amine (or outer) side, 2 acyl side, 3 side chain; on linkers, the order of the positions; unused ones are H or OH. Bridge positions count the residues as written; N and C are the ends. Side chains are listed from the residue outwards. Ends that are not written are not given here. * marks the point of attachment. C20 diacid = O=C(O)CCCCCCCCCCCCCCCCCCC(=O)*; γGlu = O=C(O)[C@H](CCC(=O)[*:2])N[*:1]; AEEA = NCCOCCOCC(=O)O

For orientation: IC50 means the midpoint of a concentration-inhibition curve.

B1: N^ε1-[2-[2-[2-[[(4S)-4-carboxy-4-(19-carboxynonadecanoylamino)butanoyl]amino]ethoxy]ethoxy]acetyl]-[His14,Arg17,Pro21,Pro27]-h-amylin (peptide)
peptide: K([AEEA-γGlu-C20 diacid])CNTATCATQRLAHFLRHSSPNFGAIPSSTNVGSNTY-NH2
modifications: disulfide 2-7; N-terminus assumed
SMILES: CC[C@H](C)[C@H](NC(=O)[C@H](C)NC(=O)CNC(=O)[C@H](Cc1ccccc1)NC(=O)[C@H](CC(N)=O)NC(=O)[C@@H]1CCCN1C(=O)[C@H](CO)NC(=O)[C@H](CO)NC(=O)[C@H](Cc1c[nH]cn1)NC(=O)[C@H](CCCNC(=N)N)NC(=O)[C@H](CC(C)C)NC(=O)[C@H](Cc1ccccc1)NC(=O)[C@H](Cc1c[nH]cn1)NC(=O)[C@H](C)NC(=O)[C@H](CC(C)C)NC(=O)[C@H](CCCNC(=N)N)NC(=O)[C@H](CCC(N)=O)NC(=O)[C@@H](NC(=O)[C@H](C)NC(=O)[C@@H]1CSSC[C@H](NC(=O)[C@@H](N)CCCCNC(=O)COCCOCCNC(=O)CC[C@H](NC(=O)CCCCCCCCCCCCCCCCCCC(=O)O)C(=O)O)C(=O)N[C@@H](CC(N)=O)C(=O)N[C@@H]([C@@H](C)O)C(=O)N[C@@H](C)C(=O)N[C@@H]([C@@H](C)O)C(=O)N1)[C@@H](C)O)C(=O)N1CCC[C@H]1C(=O)N[C@@H](CO)C(=O)N[C@@H](CO)C(=O)N[C@H](C(=O)N[C@@H](CC(N)=O)C(=O)N[C@H](C(=O)NCC(=O)N[C@@H](CO)C(=O)N[C@@H](CC(N)=O)C(=O)N[C@H](C(=O)N[C@@H](Cc1ccc(O)cc1)C(N)=O)[C@@H](C)O)C(C)C)[C@@H](C)O
notes: also called compound 69
As for B1, the IC50 in experiment [1] worked out at 8.68 nM. In addition, the “Ratio hCT/hAmylin binding” value in experiment [2] worked out at 65.3.

B2: N^ε1-[2-[2-[2-[[2-[2-[2-[[(4S)-4-carboxy-4-(19-carboxynonadecanoylamino)butanoyl]amino]ethoxy]ethoxy]acetyl]amino]ethoxy]ethoxy]acetyl]-[Arg17,Pro21,Pro27,His34 … (peptide)
peptide: K([AEEA-AEEA-γGlu-C20 diacid])CNTATCATQRLANFLRHSSPNFGAIPSSTNVGHNTY-NH2
modifications: disulfide 2-7; N-terminus assumed
SMILES: CC[C@H](C)[C@H](NC(=O)[C@H](C)NC(=O)CNC(=O)[C@H](Cc1ccccc1)NC(=O)[C@H](CC(N)=O)NC(=O)[C@@H]1CCCN1C(=O)[C@H](CO)NC(=O)[C@H](CO)NC(=O)[C@H](Cc1c[nH]cn1)NC(=O)[C@H](CCCNC(=N)N)NC(=O)[C@H](CC(C)C)NC(=O)[C@H](Cc1ccccc1)NC(=O)[C@H](CC(N)=O)NC(=O)[C@H](C)NC(=O)[C@H](CC(C)C)NC(=O)[C@H](CCCNC(=N)N)NC(=O)[C@H](CCC(N)=O)NC(=O)[C@@H](NC(=O)[C@H](C)NC(=O)[C@@H]1CSSC[C@H](NC(=O)[C@@H](N)CCCCNC(=O)COCCOCCNC(=O)COCCOCCNC(=O)CC[C@H](NC(=O)CCCCCCCCCCCCCCCCCCC(=O)O)C(=O)O)C(=O)N[C@@H](CC(N)=O)C(=O)N[C@@H]([C@@H](C)O)C(=O)N[C@@H](C)C(=O)N[C@@H]([C@@H](C)O)C(=O)N1)[C@@H](C)O)C(=O)N1CCC[C@H]1C(=O)N[C@@H](CO)C(=O)N[C@@H](CO)C(=O)N[C@H](C(=O)N[C@@H](CC(N)=O)C(=O)N[C@H](C(=O)NCC(=O)N[C@@H](Cc1c[nH]cn1)C(=O)N[C@@H](CC(N)=O)C(=O)N[C@H](C(=O)N[C@@H](Cc1ccc(O)cc1)C(N)=O)[C@@H](C)O)C(C)C)[C@@H](C)O
notes: also called compound 97
On to B2, for which the IC50 in experiment [1] came to 58.9 nM. Further, the “Ratio hCT/hAmylin binding” value in experiment [2] turned out to be 104.

B3: N^ε1-[2-[2-[2-[[2-[2-[2-[[(4S)-4-carboxy-4-(19-carboxynonadecanoylamino)butanoyl]amino]ethoxy]ethoxy]acetyl]amino]ethoxy]ethoxy]acetyl]-[Arg17,Pro21,Pro27,Arg34 … (peptide)
peptide: K([AEEA-AEEA-γGlu-C20 diacid])CNTATCATQRLANFLRHSSPNFGAIPSSTNVGRNTY-NH2
modifications: disulfide 2-7; N-terminus assumed
SMILES: CC[C@H](C)[C@H](NC(=O)[C@H](C)NC(=O)CNC(=O)[C@H](Cc1ccccc1)NC(=O)[C@H](CC(N)=O)NC(=O)[C@@H]1CCCN1C(=O)[C@H](CO)NC(=O)[C@H](CO)NC(=O)[C@H](Cc1c[nH]cn1)NC(=O)[C@H](CCCNC(=N)N)NC(=O)[C@H](CC(C)C)NC(=O)[C@H](Cc1ccccc1)NC(=O)[C@H](CC(N)=O)NC(=O)[C@H](C)NC(=O)[C@H](CC(C)C)NC(=O)[C@H](CCCNC(=N)N)NC(=O)[C@H](CCC(N)=O)NC(=O)[C@@H](NC(=O)[C@H](C)NC(=O)[C@@H]1CSSC[C@H](NC(=O)[C@@H](N)CCCCNC(=O)COCCOCCNC(=O)COCCOCCNC(=O)CC[C@H](NC(=O)CCCCCCCCCCCCCCCCCCC(=O)O)C(=O)O)C(=O)N[C@@H](CC(N)=O)C(=O)N[C@@H]([C@@H](C)O)C(=O)N[C@@H](C)C(=O)N[C@@H]([C@@H](C)O)C(=O)N1)[C@@H](C)O)C(=O)N1CCC[C@H]1C(=O)N[C@@H](CO)C(=O)N[C@@H](CO)C(=O)N[C@H](C(=O)N[C@@H](CC(N)=O)C(=O)N[C@H](C(=O)NCC(=O)N[C@@H](CCCNC(=N)N)C(=O)N[C@@H](CC(N)=O)C(=O)N[C@H](C(=O)N[C@@H](Cc1ccc(O)cc1)C(N)=O)[C@@H](C)O)C(C)C)[C@@H](C)O
notes: also called compound 95
With B3, in experiment [1], the IC50 amounted to 61.3 nM. The “Ratio hCT/hAmylin binding” value in experiment [2] amounted to 63.4.

B4: N^ε1-[2-[2-[2-(19-carboxynonadecanoylamino)ethoxy]ethoxy]acetyl]-[Arg17,Pro21,Pro27,His34]-h-amylin (peptide)
peptide: K([AEEA-C20 diacid])CNTATCATQRLANFLRHSSPNFGAIPSSTNVGHNTY-NH2
modifications: disulfide 2-7; N-terminus assumed
SMILES: CC[C@H](C)[C@H](NC(=O)[C@H](C)NC(=O)CNC(=O)[C@H](Cc1ccccc1)NC(=O)[C@H](CC(N)=O)NC(=O)[C@@H]1CCCN1C(=O)[C@H](CO)NC(=O)[C@H](CO)NC(=O)[C@H](Cc1c[nH]cn1)NC(=O)[C@H](CCCNC(=N)N)NC(=O)[C@H](CC(C)C)NC(=O)[C@H](Cc1ccccc1)NC(=O)[C@H](CC(N)=O)NC(=O)[C@H](C)NC(=O)[C@H](CC(C)C)NC(=O)[C@H](CCCNC(=N)N)NC(=O)[C@H](CCC(N)=O)NC(=O)[C@@H](NC(=O)[C@H](C)NC(=O)[C@@H]1CSSC[C@H](NC(=O)[C@@H](N)CCCCNC(=O)COCCOCCNC(=O)CCCCCCCCCCCCCCCCCCC(=O)O)C(=O)N[C@@H](CC(N)=O)C(=O)N[C@@H]([C@@H](C)O)C(=O)N[C@@H](C)C(=O)N[C@@H]([C@@H](C)O)C(=O)N1)[C@@H](C)O)C(=O)N1CCC[C@H]1C(=O)N[C@@H](CO)C(=O)N[C@@H](CO)C(=O)N[C@H](C(=O)N[C@@H](CC(N)=O)C(=O)N[C@H](C(=O)NCC(=O)N[C@@H](Cc1c[nH]cn1)C(=O)N[C@@H](CC(N)=O)C(=O)N[C@H](C(=O)N[C@@H](Cc1ccc(O)cc1)C(N)=O)[C@@H](C)O)C(C)C)[C@@H](C)O
notes: also called compound 91
B4: the concentration for half-maximal inhibition (IC50) in experiment [1] was determined as 12 nM. For the same molecule, the “Ratio hCT/hAmylin binding” value in experiment [2] was 101.

For the origin of these results see patent publication US20140087995A1 (published 2014).
